Measured values as given in patent publication US20090324614A1 (published 2009).
Numbering of substitutions follows the chain as printed.

T1: soluble rat FcRn (rat, UniProt P13599 23-298; P07151 21-119, limits assumed)
T1 construct: also called sol rat FcRn
T1 sequence: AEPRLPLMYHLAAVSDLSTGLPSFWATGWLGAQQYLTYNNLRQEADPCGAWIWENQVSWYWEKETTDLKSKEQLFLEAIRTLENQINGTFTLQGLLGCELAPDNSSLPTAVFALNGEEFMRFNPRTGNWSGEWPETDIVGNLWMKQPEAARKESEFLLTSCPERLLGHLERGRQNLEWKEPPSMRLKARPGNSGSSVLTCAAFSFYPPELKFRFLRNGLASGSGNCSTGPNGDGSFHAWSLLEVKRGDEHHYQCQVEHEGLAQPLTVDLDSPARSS
T1 sequence (b2m): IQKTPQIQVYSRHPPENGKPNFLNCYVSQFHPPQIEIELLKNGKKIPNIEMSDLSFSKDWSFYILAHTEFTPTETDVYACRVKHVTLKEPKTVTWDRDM

T2: rat FcRn/rat β2M expressed on cells (rat, UniProt P13599 23-366; P07151 21-119)
T2 construct: Cells from Neil Simister (Brandeis); also called rat FcRn (cells); rat fibroblasts expressing rat FcRn
T2 sequence: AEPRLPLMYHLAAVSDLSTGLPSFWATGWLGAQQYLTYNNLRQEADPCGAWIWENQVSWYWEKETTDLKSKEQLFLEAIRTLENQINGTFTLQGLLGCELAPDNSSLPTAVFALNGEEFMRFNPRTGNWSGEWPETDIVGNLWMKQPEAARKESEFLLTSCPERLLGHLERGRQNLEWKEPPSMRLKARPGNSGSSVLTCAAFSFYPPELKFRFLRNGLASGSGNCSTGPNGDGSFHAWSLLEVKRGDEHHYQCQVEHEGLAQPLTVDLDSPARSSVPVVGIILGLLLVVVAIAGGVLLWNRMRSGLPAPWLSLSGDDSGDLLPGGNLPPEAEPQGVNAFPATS
T2 sequence (b2m): T1 sequence (b2m)

B1: 532A-M0090-F11 IgG (antibody)
chain 1: not shown
chain 2: QSVLTQPASVSGSPGQSITISCTGTGSDVGSYNLVSWYQKYPGKAPKLIIYGDSQRPSGLSSRFSGSKSGNSASLTISGLQAEDEADYYCCSYAGSGIYVFGSGTKVTVLSQPKANPTVTLFPPSSEELQANKATLVCLISDFYPGAVTVAWKADGSPVKAGVETTKPSKQSNNKYAASSYLSLTPEQWKSHRSYSCQVTHEGSTVEKTVAPAECS
B2: 532A-M0090-F11 (germlined LC changes) IgG (antibody)
chain 1: not shown
chain 2: B1 chain 2 with V3A, K40Q, Y41H, I49M, L60V, S62N, S72T, S103T, S111G, A213T
B3: DX-2500 (germlined LC & allotype HC changes) (antibody)
chain 1: not shown
chain 2: B1 chain 2 with V3A, K40Q, Y41H, I49M, L60V, S62N, S72T, S103T, S111G, A213T
B4: 3B3 mouse anti-human FcRn IgG (antibody)
chain 1: VKLQESGPELVKPGASVKISCKASGYAFSRSWMNWVKQRPGQGLEWIGRIHPGDGDTNYNGKFKGKATLTVAKSSSTAYMQLSSLTSVDSAVYFCANEGSPYFDYWGQGTTLTVSS
chain 2: DIQLTQSPTTVAASPGEKITITCSASSSISSNYLHWYQQKPGFSPKLLIYRTSNLASGVPARFSGSGSGTSYSLTIGTMEAEDVATYYCQQGSNIPLTFGAGTKLELKRADAAPTVSIFPPSSEQLTSGGASVVCFLNNFYPKDINVKWKIDGSERQNGVLNSWTDQDSKDSTYSMSSTLTLTKDEYERHNSYTCEATHKTSTSPIVKSFNKNE

Experiments:
[1] = biological target: T1, soluble rat FcRn; test: SPR 8500, IgG, pH 7.5
[2] = biological target: T3, soluble human FcRn (shFcRn) (human, UniProt P55899 24-297; P61769 21-119); test: SPR 8500, IgG, pH 7.5
T3 construct: also called soluble hFcRn; sol hFcRn
T3 sequence (P55899 24-297 limits assumed, chain 1 of 2): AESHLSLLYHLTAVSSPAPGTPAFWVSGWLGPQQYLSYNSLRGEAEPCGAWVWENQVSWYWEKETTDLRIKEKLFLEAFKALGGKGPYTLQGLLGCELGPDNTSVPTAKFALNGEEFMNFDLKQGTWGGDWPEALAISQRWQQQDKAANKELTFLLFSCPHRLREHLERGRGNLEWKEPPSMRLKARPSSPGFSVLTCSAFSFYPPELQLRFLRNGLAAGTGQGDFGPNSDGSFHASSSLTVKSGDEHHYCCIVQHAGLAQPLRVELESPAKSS
T3 sequence (P61769 21-119 limits assumed, chain 2 of 2): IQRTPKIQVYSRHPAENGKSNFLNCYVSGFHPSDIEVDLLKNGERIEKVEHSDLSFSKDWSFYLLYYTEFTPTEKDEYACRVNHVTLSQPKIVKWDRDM

[3] = biological target: T3, soluble human FcRn (shFcRn); test: Biacore, hFcRn immobilized, IgG flowed, pH 6
[4] = biological target: T3, soluble human FcRn (shFcRn); test: SPR 8500, hFcRn pH 6 (Table 12B)
[5] = biological target: T1, soluble rat FcRn; test: SPR 8500, rat FcRn pH 6 (Table 12D)
[6] = biological target: T1, soluble rat FcRn; test: SPR 8500, IgG, pH 6
[7] = biological target: T3, soluble human FcRn (shFcRn); test: SPR 8500, IgG, pH 6
[8] = biological target: T3, soluble human FcRn (shFcRn); test: SPR 8500, hFcRn pH 7.4 (Table 12C)
[9] = biological target: T3, soluble human FcRn (shFcRn); test: Biacore, pH 7.4
[10] = biological target: T3, soluble human FcRn (shFcRn); test: Biacore, IgG immobilized, hFcRn flowed, pH 6
[11] = biological target: T3, soluble human FcRn (shFcRn); test: Biacore, IgG immobilized, hFcRn flowed, pH 7.4
[12] = biological target: T3, soluble human FcRn (shFcRn); test: Biacore, IgG immobilized, hFcRn flowed, pH 7.4; remark: listed apart in the source
[13] = biological target: T2, rat FcRn/rat β2M expressed on cells; test: FACS blocking of IgG-Fc, IgG, pH 6
[14] = biological target: T4, human FcRn/human β2M expressed by cells (293 C11 cells) (human, UniProt P55899 24-365; P61769 21-119); test: FACS blocking of IgG-Fc, IgG, pH 6
T4 construct: HEK 293 cells engineered to overexpress FcRn; Whole entries named; also called hFcRn (cells); hFcRn in THP-1 and Caco-2 cells
T4 sequence (P55899 24-365 limits assumed, chain 1 of 2): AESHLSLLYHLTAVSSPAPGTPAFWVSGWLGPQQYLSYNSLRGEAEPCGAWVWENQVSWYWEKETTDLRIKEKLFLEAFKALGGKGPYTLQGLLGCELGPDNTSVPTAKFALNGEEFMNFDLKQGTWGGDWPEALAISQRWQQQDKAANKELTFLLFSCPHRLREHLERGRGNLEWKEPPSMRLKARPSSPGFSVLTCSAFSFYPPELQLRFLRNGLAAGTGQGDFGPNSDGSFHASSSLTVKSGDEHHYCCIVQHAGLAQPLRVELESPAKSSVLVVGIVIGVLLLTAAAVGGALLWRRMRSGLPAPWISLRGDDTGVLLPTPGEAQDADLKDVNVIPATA
T4 sequence (P61769 21-119 limits assumed, chain 2 of 2): as the sequence (P61769 21-119 limits assumed, chain 2 of 2) above

[15] = biological target: T1, soluble rat FcRn; test: SPR 8500, rat FcRn pH 7.4 (Table 12E)
[16] = biological target: T3, soluble human FcRn (shFcRn); test: Biacore, hFcRn immobilized, IgG flowed, pH 7.4
[17] = biological target: T4, human FcRn/human β2M expressed by cells …; test: FACS (blocking), IgG, hFcRn cells, pH 6
[18] = biological target: T3, soluble human FcRn (shFcRn); test: SPR 8500, hFcRn pH 7.4 (Table 11C)
[19] = biological target: T3, soluble human FcRn (shFcRn); test: SPR 8500, hFcRn pH 6 (Table 11B)
[20] = biological target: T1, soluble rat FcRn; test: SPR 8500, rat FcRn pH 6 (Table 11D)

Binder	Kd [3]	koff [3]	kon [3]	Kd [4]	koff [4]	kon [4]	Kd [8]	koff [8]	kon [8]	K off Fold improvement over DX2500 [9]	K off Fold improvement over M90-F11 [9]	KD Fold improvement over DX2500 [9]	KD Fold improvement over M90-F11 [9]	Kd [10]	koff [10]	kon [10]	Kd [16]	koff [16]	kon [16]	IC50 [17]	other results
B1	0.118 nM	0.000252 s⁻¹	2.13e+06 M⁻¹ s⁻¹	2.44 nM	0.00248 s⁻¹	1.02e+06 M⁻¹ s⁻¹	10.8 nM	0.00173 s⁻¹	159000 M⁻¹ s⁻¹	7 fold	1 fold	5 fold	1 fold	10.3 nM	0.00312 s⁻¹	303000 M⁻¹ s⁻¹	0.772 nM	0.000702 s⁻¹	909000 M⁻¹ s⁻¹	0.43 nM	Kd [1]: 9.14 nM; Kd [2]: 10.8 nM; Kd [5]: 9.8 nM; koff [5]: 0.00117 s⁻¹; kon [5]: 119000 M⁻¹ s⁻¹; Kd [6]: 9.8 nM; Kd [7]: 2.44 nM; Kd [11]: 18.6 nM; koff [11]: 0.00299 s⁻¹; kon [11]: 161000 M⁻¹ s⁻¹; Kd [12]: 20.5 nM; koff [12]: 0.00373 s⁻¹; kon [12]: 181000 M⁻¹ s⁻¹; IC50 [13]: 4.9 nM; IC50 [14]: 2.6 nM; Kd [15]: 9.14 nM; koff [15]: 0.00114 s⁻¹; kon [15]: 125000 M⁻¹ s⁻¹
B2	0.172 nM	0.000764 s⁻¹	4.45e+06 M⁻¹ s⁻¹	–	–	–	–	–	–	–	–	–	–	29.9 nM	0.0172 s⁻¹	574000 M⁻¹ s⁻¹	0.779 nM	0.000776 s⁻¹	996000 M⁻¹ s⁻¹	0.38 nM	Kd [12]: 35.2 nM; koff [12]: 0.0152 s⁻¹; kon [12]: 433000 M⁻¹ s⁻¹
B3	0.16 nM	0.000336 s⁻¹	2.11e+06 M⁻¹ s⁻¹	–	–	–	–	–	–	1 fold	0.15 fold	1 fold	0.21 fold	27.6 nM	0.0177 s⁻¹	642000 M⁻¹ s⁻¹	0.268 nM	0.000338 s⁻¹	1.26e+06 M⁻¹ s⁻¹	0.65 nM	Kd [11]: 87.9 nM; koff [11]: 0.0197 s⁻¹; kon [11]: 224000 M⁻¹ s⁻¹
B4	–	–	–	0.409 nM	0.00094 s⁻¹	2.3e+06 M⁻¹ s⁻¹	0.675 nM	0.0023 s⁻¹	3.41e+06 M⁻¹ s⁻¹	–	–	–	–	–	–	–	–	–	–	–	Kd [18]: 0.593 nM; koff [18]: 0.00176 s⁻¹; kon [18]: 2.97e+06 M⁻¹ s⁻¹; Kd [19]: 0.34 nM; koff [19]: 0.00131 s⁻¹; kon [19]: 3.82e+06 M⁻¹ s⁻¹; IC50 [14]: 9.7 nM; Kd [20]: 1.5 nM; koff [20]: 0.00104 s⁻¹; kon [20]: 683000 M⁻¹ s⁻¹
